Test results: the supplement of paper PMC5998384

Assays:
HeLa Kyoto [1] = test: solubility change mitosis vs G1/S (difference of NP-40 vs SDS log2 ratios) (log2 ratio difference); higher = more soluble in mitosis
HeLa Kyoto [2] = test: melting temperature (median over replicates), in situ; higher = more thermally stable
HeLa Kyoto [3] = test: thermal stability score vs G1/S (z-score of summed log2 fold changes over temperatures); higher = more thermally stable than in G1/S
HeLa Kyoto [4] = test: solubility in G1/S (NP-40 vs SDS abundance) (log2 ratio); higher = more soluble; details: cell cycle stage: G1/S
[5] = cell cycle stage: early G1 (4.5 h after nocodazole release)
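Throughout, for melting temperature (median over replicates), in situ: HeLa Kyoto cells synchronized by double thymidine or nocodazole block, proteins quantified by TMT10plex mass spectrometry, three independent biological replicates.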
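Throughout, for solubility change mitosis vs G1/S (difference of NP-40 vs SDS log2 ratios): synchronized HeLa Kyoto cells (double thymidine block for G1/S, nocodazole release for mitosis), protein amounts in NP-40 versus SDS lysates quantified by mass spectrometry, three biological replicates.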
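Throughout, for solubility in G1/S (NP-40 vs SDS abundance): HeLa Kyoto cells arrested at G1/S by double thymidine block, proteins quantified by TMT10plex mass spectrometry in mild NP-40 versus SDS extracts, three biological replicates.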
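Throughout, for thermal stability score vs G1/S (z-score of summed log2 fold changes over temperatures): synchronized HeLa Kyoto cells, proteins quantified by TMT10plex mass spectrometry, three biological replicates, mitosis taken 0.5 h after nocodazole release, G1/S directly after double thymidine block.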

Row | Substance | solubility change mitosis (log2) (HeLa Kyoto [1]) | melting temperature (HeLa Kyoto [2]; cell cycle stage: G1/S) [°C] | melting temperature (HeLa Kyoto [2]; cell cycle stage: mitosis) [°C] | thermal stability score (HeLa Kyoto [3]; [5]) | thermal stability score (HeLa Kyoto [3]; cell cycle stage: mitosis) | solubility in G1/S (log2) (HeLa Kyoto [4])
1 | MASASYHISNLLEKMTSSDKDFRFMATNDLMTELQKDSIKLDDDSERKVVKMILKLLEDKNGEVQNLAVKCLGPLVSKVKEYQVETIVDTLCTNMLSDKEQLRDISSIGLKTVIGELPPASSGSALAANVCKKITGRLTSAIAKQEDVSVQLEALDIMADMLSRQGGLLVNFHPSILTCLLPQLTSPRLAVRKRTIIALGHLVMSCGNIVFVDLIEHLLSELSKNDSMSTTRTYIQCIAAISRQAGHRIGEYLEKIIPLVVKFCNVDDDELREYCIQAFESFVRRCPKEVYPHVSTIINICLKYLTYDPNYNYDDEDEDENAMDADGGDDDDQGSDDEYSDDDDMSWKVRRAAAKCLDAVVSTRHEMLPEFYKTVSPALISRFKEREENVKADVFHAYLSLLKQTRPVQSWLCDPDAMEQGETPLTMLQSQVPNIVKALHKQMKEKSVKTRQCCFNMLTELVNVLPGALTQHIPVLVPGIIFSLNDKSSSSNLKIDALSCLYVILCNHSPQVFHPHVQALVPPVVACVGDPFYKITSEALLVTQQLVKVIRPLDQPSSFDATPYIKDLFTCTIKRLKAADIDQEVKERAISCMGQIICNLGDNLGSDLPNTLQIFLERLKNEITRLTTVKALTLIAGSPLKIDLRPVLGEGVPILASFLRKNQRALKLGTLSALDILIKNYSDSLTAAMIDAVLDELPPLISESDMHVSQMAISFLTTLAKVYPSSLSKISGSILNELIGLVRSPLLQGGALSAMLDFFQALVVTGTNNLGYMDLLRMLTGPVYSQSTALTHKQSYYSIAKCVAALTRACPKEGPAVVGQFIQDVKNSRSTDSIRLLALLSLGEVGHHIDLSGQLELKSVILEAFSSPSEEVKSAASYALGSISVGNLPEYLPFVLQEITSQPKRQYLLLHSLKEIISSASVVGLKPYVENIWALLLKHCECAEEGTRNVVAECLGKLTLIDPETLLPRLKGYLISGSSYARSSVVTAVKFTISDHPQPIDPLLKNCIGDFLKTLEDPDLNVRRVALVTFNSAAHNKPSLIRDLLDTVLPHLYNETKVRKELIREVEMGPFKHTVDDGLDIRKAAFECMYTLLDSCLDRLDIFEFLNHVEDGLKDHYDIKMLTFLMLVRLSTLCPSAVLQRLDRLVEPLRATCTTKVKANSVKQEFEKQDELKRSAMRAVAALLTIPEAEKSPLMSEFQSQISSNPELAAIFESIQKDSSSTNLESMDTS [CAND1] | -0.0927 | 56.9 | 56.2 | -0.92 | -0.546 | 0.0808
2 | MALLSTVRGATWGRLVTRHFSHAARHGERPGGEELSRLLLDDLVPTSRLELLFGMTPCLLALQAARRSVARLLLQAGKAGLQGKRAELLRMAEARDIPVLRPRRQKLDTMCRYQVHQGVCMEVSPLRPRPWREAGEASPGDDPQQLWLVLDGIQDPRNFGAVLRSAHFLGVDKVITSRRNSCPLTPVVSKSSAGAMEVMDVFSTDDLTGFLQTKAQQGWLVAGTVGCPSTEDPQSSEIPIMSCLEFLWERPTLLVLGNEGSGLSQEVQASCQLLLTILPRRQLPPGLESLNVSVAAGILLHSICSQRKGFPTEGERRQLLQDPQEPSARSEGLSMAQHPGLSSGPEKERQNEG [MRM1] | 0.0939 | 53.3 | 51.7 | -1.62 | -1.81 | -0.178
3 | MDGDGDPESVGQPEEASPEEQPEEASAEEERPEDQQEEEAAAAAAYLDELPEPLLLRVLAALPAAELVQACRLVCLRWKELVDGAPLWLLKCQQEGLVPEGGVEEERDHWQQFYFLSKRRRNLLRNPCGEEDLEGWCDVEHGGDGWRVEELPGDSGVEFTHDESVKKYFASSFEWCRKAQVIDLQAEGYWEELLDTTQPAIVVKDWYSGRSDAGCLYELTVKLLSEHENVLAEFSSGQVAVPQDSDGGGWMEISHTFTDYGPGVRFVRFEHGGQDSVYWKGWFGARVTNSSVWVEP [FBXO2] | -0.206 | 51.9 | 50.8 | 0.487 | -0.484 | -0.047
4 | MAAGVEAAAEVAATEIKMEEESGAPGVPSGNGAPGPKGEGERPAQNEKRKEKNIKRGGNRFEPYANPTKRYRAFITNIPFDVKWQSLKDLVKEKVGEVTYVELLMDAEGKSRGCAVVEFKMEESMKKAAEVLNKHSLSGRPLKVKEDPDGEHARRAMQKVMATTGGMGMGPGGPGMITIPPSILNNPNIPNEIIHALQAGRLGSTVFVANLDYKVGWKKLKEVFSMAGVVVRADILEDKDGKSRGIGTVTFEQSIEAVQAISMFNGQLLFDRPMHVKMDERALPKGDFFPPERPQQLPHGLGGIGMGLGPGGQPIDANHLNKGIGMGNIGPAGMGMEGIGFGINKMGGMEGPFGGGMENMGRFGSGMNMGRINEILSNALKRGEIIAKQGGGGGGGSVPGIERMGPGIDRLGGAGMERMGAGLGHGMDRVGSEIERMGLVMDRMGSVERMGSGIERMGPLGLDHMASSIERMGQTMERIGSGVERMGAGMGFGLERMAAPIDRVGQTIERMGSGVERMGPAIERMGLSMERMVPAGMGAGLERMGPVMDRMATGLERMGANNLERMGLERMGANSLERMGLERMGANSLERMGPAMGPALGAGIERMGLAMGGGGGASFDRAIEMERGNFGGSFAGSFGGAGGHAPGVARKACQIFVRNLPFDFTWKMLKDKFNECGHVLYADIKMENGKSKGCGVVKFESPEVAERACRMMNGMKLSGREIDVRIDRNA [HNRNPM] | 0.236 | 46.7 | 47.3 | 6.88 | 13.2 | -0.172
5 | MTTYLEFIQQNEERDGVRFSWNVWPSSRLEATRMVVPVAALFTPLKERPDLPPIQYEPVLCSRTTCRAVLNPLCQVDYRAKLWACNFCYQRNQFPPSYAGISELNQPAELLPQFSSIEYVVLRGPQMPLIFLYVVDTCMEDEDLQALKESMQMSLSLLPPTALVGLITFGRMVQVHELGCEGISKSYVFRGTKDLSAKQLQEMLGLSKVPLTQATRGPQVQQPPPSNRFLQPVQKIDMNLTDLLGELQRDPWPVPQGKRPLRSSGVALSIAVGLLECTFPNTGARIMMFIGGPATQGPGMVVGDELKTPIRSWHDIDKDNAKYVKKGTKHFEALANRAATTGHVIDIYACALDQTGLLEMKCCPNLTGGYMVMGDSFNTSLFKQTFQRVFTKDMHGQFKMGFGGTLEIKTSREIKISGAIGPCVSLNSKGPCVSENEIGTGGTCQWKICGLSPTTTLAIYFEVVNQHNAPIPQGGRGAIQFVTQYQHSSGQRRIRVTTIARNWADAQTQIQNIAASFDQEAAAILMARLAIYRAETEEGPDVLRWLDRQLIRLCQKFGEYHKDDPSSFRFSETFSLYPQFMFHLRRSSFLQVFNNSPDESSYYRHHFMRQDLTQSLIMIQPILYAYSFSGPPEPVLLDSSSILADRILLMDTFFQILIYHGETIAQWRKSGYQDMPEYENFRHLLQAPVDDAQEILHSRFPMPRYIDTEHGGSQARFLLSKVNPSQTHNNMYAWGQESGAPILTDDVSLQVFMDHLKKLAVSSAA [SEC23A] | -0.0745 | 50 | 50.2 | -0.157 | 0.129 | -0.0681
6 | MTERRRDELSEEINNLREKVMKQSEENNNLQSQVQKLTEENTTLREQVEPTPEDEDDDIELRGAAAAAAPPPPIEEECPEDLPEKFDGNPDMLAPFMAQCQIFMEKSTRDFSVDRVRVCFVTSMMTGRAARWASAKLERSHYLMHNYPAFMMEMKHVFEDPQRREVAKRKIRRLRQGMGSVIDYSNAFQMIAQDLDWNEPALIDQYHEGLSDHIQEELSHLEVAKSLSALIGQCIHIERRLARAAAARKPRSPPRALVLPHIASHHQVDPTEPVGGARMRLTQEEKERRRKLNLCLYCGTGGHYADNCPAKASKSSPAGKLPGPAVEGPSATGPEIIRSPQDDASSPHLQVMLQIHLPGRHTLFVRAMIDSGASGNFIDHEYVAQNGIPLRIKDWPILVEAIDGRPIASGPVVHETHDLIVDLGDHREVLSFDVTQSPFFPVVLGVRWLSTHDPNITWSTRSIVFDSEYCRYHCRMYSPIPPSLPPPAPQPPLYYPVDGYRVYQPVRYYYVQNVYTPVDEHVYPDHRLVDPHIEMIPGAHSIPSGHVYSLSEPEMAALRDFVARNVKDGLITPTIAPNGAQVLQVKRGWKLQVSYDCRAPNNFTIQNQYPRLSIPNLEDQAHLATYTEFVPQIPGYQTYPTYAAYPTYPVGFAWYPVGRDGQGRSLYVPVMITWNPHWYRQPPVPQYPPPQPPPPPPPPPPPPSYSTL [PEG10] | -0.00752 | 49.4 | 49.8 | 0.275 | 0.54 | 0.144
7 | MSPRRTLPRPLSLCLSLCLCLCLAAALGSAQSGSCRDKKNCKVVFSQQELRKRLTPLQYHVTQEKGTESAFEGEYTHHKDPGIYKCVVCGTPLFKSETKFDSGSGWPSFHDVINSEAITFTDDFSYGMHRVETSCSQCGAHLGHIFDDGPRPTGKRYCINSAALSFTPADSSGTAEGGSGVASPAQADKAEL [MSRB3] | 0.0421 | 55 | 53.6 | -0.168 | -0.886 | 0.116
8 | MDLAAAAEPGAGSQHLEVRDEVAEKCQKLFLDFLEEFQSSDGEIKYLQLAEELIRPERNTLVVSFVDLEQFNQQLSTTIQEEFYRVYPYLCRALKTFVKDRKEIPLAKDFYVAFQDLPTRHKIRELTSSRIGLLTRISGQVVRTHPVHPELVSGTFLCLDCQTVIRDVEQQFKYTQPNICRNPVCANRRRFLLDTNKSRFVDFQKVRIQETQAELPRGSIPRSLEVILRAEAVESAQAGDKCDFTGTLIVVPDVSKLSTPGARAETNSRVSGVDGYETEGIRGLRALGVRDLSYRLVFLACCVAPTNPRFGGKELRDEEQTAESIKNQMTVKEWEKVFEMSQDKNLYHNLCTSLFPTIHGNDEVKRGVLLMLFGGVPKTTGEGTSLRGDINVCIVGDPSTAKSQFLKHVEEFSPRAVYTSGKASSAAGLTAAVVRDEESHEFVIEAGALMLADNGVCCIDEFDKMDVRDQVAIHEAMEQQTISITKAGVKATLNARTSILAAANPISGHYDRSKSLKQNINLSAPIMSRFDLFFILVDECNEVTDYAIARRIVDLHSRIEESIDRVYSLDDIRRYLLFARQFKPKISKESEDFIVEQYKHLRQRDGSGVTKSSWRITVRQLESMIRLSEAMARMHCCDEVQPKHVKEAFRLLNKSIIRVETPDVNLDQEEEIQMEVDEGAGGINGHADSPAPVNGINGYNEDINQESAPKASLRLGFSEYCRISNLIVLHLRKVEEEEDESALKRSELVNWYLKEIESEIDSEEELINKKRIIEKVIHRLTHYDHVLIELTQAGLKGSTEGSESYEEDPYLVVNPNYLLED [MCM6] | -0.0695 | 50.6 | 50.7 | 3.18 | 4.76 | -0.0881
9 | RAB14 | -0.0891 | 60.6 | 58.8 | -1.89 | -3.07 | 0.0669
10 | MGRGWGFLFGLLGAVWLLSSGHGEEQPPETAAQRCFCQVSGYLDDCTCDVETIDRFNNYRLFPRLQKLLESDYFRYYKVNLKRPCPFWNDISQCGRRDCAVKPCQSDEVPDGIKSASYKYSEEANNLIEECEQAERLGAVDESLSEETQKAVLQWTKHDDSSDNFCEADDIQSPEAEYVDLLLNPERYTGYKGPDAWKIWNVIYEENCFKPQTIKRPLNPLASGQGTSEENTFYSWLEGLCVEKRAFYRLISGLHASINVHLSARYLLQETWLEKKWGHNITEFQQRFDGILTEGEGPRRLKNLYFLYLIELRALSKVLPFFERPDFQLFTGNKIQDEENKMLLLEILHEIKSFPLHFDENSFFAGDKKEAHKLKEDFRLHFRNISRIMDCVGCFKCRLWGKLQTQGLGTALKILFSEKLIANMPESGPSYEFHLTRQEIVSLFNAFGRISTSVKELENFRNLLQNIH [ERO1A] | -0.161 | 54.2 | 54.6 | 5.02 | 7.63 | 0.338
